Reference: IntAct's records for PubMed 22939624

B1: non-specific protein-tyrosine kinase (Homo sapiens), A9UEZ6 (parent)
chain: MVDPVGFAEAWKAQFPDSEPPRMELRSVGDIEQELERCKASIRRLEQEVNQERFRMIYLQTLLAKEKKSYDRQRWGFRRAAQAPDGASEPRASASRPQPAPADGADPPPAEEPEARPDGEGSPGKARPGTARRPGAAASGERDDRGPPASVAALRSNFERIRKGHGQPGADAEKPFYVNVEFHHERGLVKVNDKEVSDRISSLGSQAMQMERKKSQHGAGSSVGDASRPPYRGRSSESSCGVDGDYEDAELNPRFLKDNLIDANGGSRPPWPPLEYQPYQSIYVGGMMEGEGKGPLLRSQSTSEQEKRLTWPRRSYSPRSFEDCGGGYTPDCSSNENLTSSEEDFSSGQSSRVSPSPTTYRMFRDKSRSPSQNSQQSFDSSSPPTPQCHKRHRHCPVVVSEATIVGVRKTGQIWPNDGEGAFHGDADGSFGTPPGYGCAADRAEEQRRHQDGLPYIDDSPSSSPHLSSKGRGSRDALVSGALESTKASELDLEKGLEMRKWVLSGILASEETYLSHLEALLLPMKPLKAAATTSQPVLTSQQIETIFFKVPELYEIHKEFYDGLFPRVQQWSHQQRVGDLFQKLASQLGVYRVLGYNHNGEWCEAQTKNGQGWVPSNYITPVNSLEKHSWYHGPVSRNAAEYLLSSGINGSFLVRESESSPGQRSISLRYEGRVYHYRINTASDGKLYVSSESRFNTLAELVHHHSTVADGLITTLHYPAPKRNKPTVYGVSPNYDKWEMERTDITMKHKLGGGQYGEVYEGVWKKYSLTVAVKTLKEDTMEVEEFLKEAAVMKEIKHPNLVQLLGVCTREPPFYIITEFMTYGNLLDYLRECNRQEVNAVVLLYMATQISSAMEYLEKKNFIHRDLAARNCLVGENHLVKVADFGLSRLMTGDTYTAHAGAKFPIKWTAPESLAYNKFSIKSDVWAFGVLLWEIATYGMSPYPGIDLSQVYELLEKDYRMERPEGCPEKVYELMRACWQWNPSDRPSFAEIHQAFETMFQESSISDEVEKELGKQGVRGAVSTLLQAPELPTKTRTSRRAAEHRDTTDVPEMPHSKGQGESDPLDHEPAVSPLLPRKERGPPEGGLNEDERLLPKDKKTNLFSALIKKKKKTAPTPPKRSSSFREMDGQPERRGAGEEEGRDISNGALAFTPLDTADPAKSPKPSNGAGVPNGALRESGGSGFRSPHLWKKSSTLTSSRLATGEEEGGGSSSKRFLRSCSASCVPHGAKDTEWRSVTLPRDLQSTGRQFDSSTFGGHKSEKPALPRKRAGENRSDQVTRGTVTPPPRLVKKNEEAADEVFKDIMESSPGSSPPNLTPKPLRRQVTVAPASGLPHKEEAGKGSALGTPAAAEPVTPTSKAGSGAPGGTSKGPAEESRVRRHKHSSESPGRDKGKLSRLKPAPPPPPAASAGKAGGKPSQSPSQEAAGEAVLGAKTKATSLVDAVNSDAAKPSQPGEGLKKPVLPATPKPQSAKPSGTPISPAPVPSTLPSASSALAGDQPSSTAFIPLISTRVSLRKTRQPPERIASGAITKGVVLDSTEALCLAISRNSEQMASHSAVLEAGKNLYTFCVSYVDSIQQMRNKFAFREAINKLENNLRELQICPATAGSGPAATQDFSKLLSSVKEISDIVQR

Variants of: B1
Settings: with hs90b_human HSP90AB1, P08238
Sequence of hs90b_human HSP90AB1, P08238 (P08238 whole entry): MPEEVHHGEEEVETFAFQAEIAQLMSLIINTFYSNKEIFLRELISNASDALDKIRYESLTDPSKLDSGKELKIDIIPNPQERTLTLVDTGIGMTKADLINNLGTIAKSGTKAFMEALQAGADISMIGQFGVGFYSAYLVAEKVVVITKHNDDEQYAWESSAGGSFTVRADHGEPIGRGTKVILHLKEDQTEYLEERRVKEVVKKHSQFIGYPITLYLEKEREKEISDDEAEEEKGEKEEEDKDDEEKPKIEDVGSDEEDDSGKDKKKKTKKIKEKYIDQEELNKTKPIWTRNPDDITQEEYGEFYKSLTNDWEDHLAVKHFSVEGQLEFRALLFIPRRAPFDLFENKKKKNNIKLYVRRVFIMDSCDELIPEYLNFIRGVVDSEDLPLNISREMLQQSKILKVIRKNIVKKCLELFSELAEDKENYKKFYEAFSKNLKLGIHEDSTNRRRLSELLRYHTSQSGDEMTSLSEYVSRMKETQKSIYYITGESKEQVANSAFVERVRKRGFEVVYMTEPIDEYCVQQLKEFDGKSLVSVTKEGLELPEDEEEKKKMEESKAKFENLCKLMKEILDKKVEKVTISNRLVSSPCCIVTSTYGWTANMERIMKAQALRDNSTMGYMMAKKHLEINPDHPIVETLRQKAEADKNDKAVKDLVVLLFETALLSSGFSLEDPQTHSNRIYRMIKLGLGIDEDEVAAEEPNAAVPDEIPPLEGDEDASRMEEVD

Variant	effect of a mutation on the interaction
M747I	decreasing interaction
M975I	increasing interaction
